Assay results taken from US6562587 (ASTRA PHARMA, dated 2003).
Non-standard residues stand in square brackets, D forms with d. No end group written: not given here.

B1: Tyr-D-Thr-Gly-Phe-Leu-Thr (DTLET), labelled with tritium (peptide)
peptide: Y[dT]GFLT
modifications: not fully specified
notes: Synthetic delta-selective enkephalin analogue used as the radioligand; also called ^3H-DTLET

Columns and labels:
[1] = molecular target: delta opioid receptor naturally expressed by NG 108-15 cells (UniProt P32300); assay: Table 1, NG 108-15 column (method not described)
[2] = molecular target: T1, K56 receptor (mouse delta opioid receptor encoded by clone K56) (mouse, UniProt P32300 1-372); assay: radioligand binding, 1 nM ^3H-DTLET on monolayer Cos-1 cells transfected with K56
T1 construct: Expressed transiently in Cos-1 cells from plasmid pCDM8-K56; 371 amino acids; also called K56 protein; Cos K56

Row | Molecule | PKi [1] | signal over background [2] [fold]
1 | cyclic [D-penicillamine^2, D-penicillamine^5]-enkephalin (peptide) | 8.3 | –
2 | B1 | – | 6
